Results from the supplement of paper PMC9170038.

Tested on: MS2 coat protein
Assay: apparent KD of MS2 coat protein; designed switch direction (-1 OFF switch, 1 ON switch): -1; higher = weaker reporter binding
Procedure, shortened: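 Designed RNA switches sharing common flanks were transcribed on Illumina chips by stalled E. coli RNA polymerase. They were titrated with SNAP-549-labelled MS2 coat protein, from 0.7 or 1.5 nM doubling to 3 µM, in Tris-HCl pH 7.5 buffer with KCl, MgCl2, BSA, DTT, tRNA and Tween-20. Titrations ran without input, with 200 uM small-molecule ligand, or with an oligonucleotide input. The apparent KD of each design is the median over its clusters, after curve-fitting of normalised cluster fluorescence.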

[1] = input ligand: microRNA oligo, concentration not stated
[2] = Eterna round: R95, input ligand: microRNA oligo, concentration not stated
[3] = Eterna round: R95, input ligand: FMN 200 uM
[4] = Eterna round: R95, input ligand: none

| Sequence | apparent KD of MS2 coat protein (input ligand: FMN 200 uM) [nM] | apparent KD of MS2 coat protein (input ligand: none) [nM] | apparent KD of MS2 coat protein [1] [nM] | further results |
| --- | --- | --- | --- | --- |
| CUACUACAUGAGGAUCACCCAUGUGAGGAUAUCAGUGGUGCUGCUAGGUAGUCCGGACUGAGAAGGCGCAUAGU [Mod-Malcom] (Eterna round: R97, puzzle: Exclusion 1) | 43.1 | 52.8 | – | – |
| CGCACACAUGAGGAUCACCCAUGUGAGGAUAUCAUGCUUCGUAGUAAACUACGAAGUGUGAGAAGGCACAUGCA [Omei Ex1 D6] (Eterna round: R97, puzzle: Exclusion 1) | 169 | 44.4 | – | – |
| CGAACUGUCUAGGAUAUACUCCCAUGCAGUUGAGUAGAAGGAGACACAUGAGGAUCACCCAUGUGACCCGAAGU [EX6 C.12] (Eterna round: R97, puzzle: Exclusion 6) | 25.3 | 19.7 | – | – |
| GUCUCACAUGAGGAUCACCCAUGUGAGGAUAUACUGGGCAUUCUGGUGGCAGGUGGGCGUAGAAGGCACGUGGG [Eternabot (L1) Solution 82] (Eterna round: R97, puzzle: Exclusion 1) | 33.8 | 19.4 | – | – |
| AAACGGCAGGGAGGAUAUGCUUGCCUGGGUCGUCUUCAGACAUGAGGAUCACCCAUGUAGUCGACGCAGAAGGCCCUCAAAGCC [JL ViennaUCT Ontiis mod 5] (Eterna round: R96, puzzle: Exclusion NG 2) | 158 | 18.1 | 16.2 | – |
| UAAAUAAAUGUAGGAUAUCUGCACGUGUAGUGCAGAGAAGGACAUGAGGAUCACCCAUGUAUAGUAGCUUCGGCUACAAAUAAU [ENG1-C3] (Eterna round: R96, puzzle: Exclusion NG 1) | 110 | 88.8 | 69.3 | – |
| GUAUAGCUAAAGGAUAUUCUCCGACGACGUGAAGAAGAAGGUUGGACAUGAGGAUCACCCAUGUGUACAGGAUA [Eternabot (L2) Solution 62] (Eterna round: R97, puzzle: Exclusion 6) | 21.9 | 21.8 | – | – |
| UAAAACGGAGGAUAUACUGACCCUCAAAACAGACGCGCUGGACAUGAGGAUCACCCAUGUAGAAGGCCGAAUGC [Titeustele] (puzzle: Exclusion 2) | – | – | – | apparent KD of MS2 coat protein [2]: 21.7 nM |
| UUCAUGUGAGGAUAUAGUACUCUUUCUAUUAUUAUUGAGUAUUAGAAGGCACAUGAGGAUCACCCAUGUAGUAC [Ex4 - 3 - 41] (puzzle: Exclusion 4) | – | – | – | apparent KD of MS2 coat protein [2]: 28.1 nM |
| CAUGGAUGUGAGCCGCAUUACAUGAGGAUCACCCAUGUCAACAAGCUUUUUGCUUGUCUUACGCGGCGGCACCAGAA [Getelexe] (puzzle: Sensor v3, turn-off variant 1) | – | – | – | apparent KD of MS2 coat protein [3]: 14.3 nM; apparent KD of MS2 coat protein [2]: 8.03 nM; apparent KD of MS2 coat protein [4]: 10.8 nM |
| UUUUUUGUUGUGAGGAUAUCGUUUUUGUUUUGGAUCGAGAAGGCACAUGAGGAUCACCCAUGUUUGUUGUGGUU [JR_BMOE4_Sub087] (puzzle: Brourd's mod of Exclusion 4) | – | – | – | apparent KD of MS2 coat protein [2]: 78.3 nM |
| UUGGCAGGUUUUUUGCUCGACAUGAGGAUCACCCAUGUUGCGUGGGUUGUGUGUGUGCGGUGUAUAUAUAUGGUCCU [-24.8, -48.1 kcal, A 14%] (Eterna round: R97, puzzle: Sensor, turn-off variant 1) | 480 | 644 | – | – |
| ACGAUGAUCGAAAAGUGUAAAUCGACAUGAGGAUCACCCAUGUAGGAUAUGGCUACGAAAAGUAGUCAGAAGGGCAUGUCAUCA [3 Av 11 mod - 1] (Eterna round: R96, puzzle: Exclusion NG 3) | 36.9 | 31.1 | 25.7 | – |
| AUUGUAUGGGAAGGAUAUAGAAUAUUAUUUUAACAUGAGGAUCACCCAUGUAACCUUAUGUGUAGCUAGAAGGUCCGUUUGUUA [Title] (Eterna round: R96, puzzle: Exclusion NG 2) | – | – | 269 | – |
| ACAUGAGGAUCACCCAUGUGACAAGAAUGGCUGAUACAGAGAUAGGAUAUAGGUGCAUAUCUAACCUAGAAGGGUCAUGACUGG [Deportation 75 - Jieux - Exclusion NG 3] (Eterna round: R96, puzzle: Exclusion NG 3) | 53.4 | 37 | 34.3 | – |
| CGUGGCCGGUGAGGAUAUUGAUGACAUGAGGAUCACCCAUGUGUAUCCUCUCGAAAUACCGUGAUCAAGAAGGCAUGGUGCCAC [Ritibe] (Eterna round: R96, puzzle: Exclusion NG 2) | 68.5 | 14 | 12 | – |
| AAACAAUCCCGAGGAUAUCGGCUAUUAGCAUGCCGAGAAGGCGGCGCGCAUCGACAUGAGGAUCACCCAUGUGUCCGCUCGGUU [Eternabot solution 31] (Eterna round: R96, puzzle: Exclusion NG 1) | 20.8 | 21.6 | 13.6 | – |
| AUAAUGUAAGGAUAUCAGUCGUUAAUAAUUUAAUAAUCGACUGAGAAGGUACAUGAGGAUCACCCAUGUGAUCA [E4/8-B1] (Eterna round: R97, puzzle: Exclusion 4) | 350 | 930 | – | – |

| Sequence | apparent KD of MS2 coat protein (input ligand: FMN 200 uM) [nM] | apparent KD of MS2 coat protein (input ligand: none) [nM] | apparent KD of MS2 coat protein [1] [nM] | further results |
| --- | --- | --- | --- | --- |
| CCGUGGCAAGGAUAUACAUAGGAGAGGAAGGCAAGAGGAGGACAUGAGGAUCACCCAUGUAGAAGGUGCAGAUC [JR_Exclu2_Sub028] (puzzle: Exclusion 2) | – | – | – | apparent KD of MS2 coat protein [2]: 71.7 nM |
| UGUUGUUACGUAGGAUAUGGCCAACAGGCCCUAGGAUAUGCGAAAGCAGAAGGAGCGCCAACAGGCGAGAAGGACGGGUUAACA [pwkr exNG2 2xF7 2xFMN.15] (Eterna round: R96, puzzle: Exclusion NG 2) | 50.2 | 60.5 | 78.2 | – |
| GAUUAUGCGAGCUUUAGGGACAUGAGGAUCACCCAUGUUCGUCUUAUUGGUCUGGAUGCACUAACAUACCUAAAUCU [JMF 28] (puzzle: Sensor v3, turn-off variant 1) | – | – | – | apparent KD of MS2 coat protein [3]: 22.4 nM; apparent KD of MS2 coat protein [2]: 30.4 nM; apparent KD of MS2 coat protein [4]: 24 nM |
| UGCCGUAGAGGAUAUACGUAGAAAUAGAUUCAUGUAAAACUACAUGAGGAUCACCCAUGUAGAAGGCUAUGGCU [JL-ex2-4.32 Eli mod] (Eterna round: R97, puzzle: Exclusion 2) | 243 | 25.3 | – | – |
| CUCAUGUGAGGAUAUCACAUAGCGUCACGGCUGUAACAUUUUGAGAAGGCACAUGAGGAUCACCCAUGUGACAC [Eternabot (L2) Solution 79] (Eterna round: R97, puzzle: Exclusion 4) | 104 | 46.6 | – | – |
| UAUUUACAUGAGGAUCACCCAUGUUAGGAUAUGUUUCUAUCGUCGAAAGAUGAUAUUUGCAGAAGGGACAAUAU [LRO-Excl01-28 mod derived from EliFisker 4.24] (Eterna round: R97, puzzle: Exclusion 1) | 24 | 24.3 | – | – |
| AACCAGCGAGGAUAUGCUUGCGCGUGUUCUGGUUAUAAUCGACUUGAGGAUCACCCAAGUAGAAGGUGCUGGCG [EX2 #55] (Eterna round: R97, puzzle: Exclusion 2) | 360 | 147 | – | – |
| GAUCAUGCAGGAUAUACAGUUUCCAUGAUAACAUGGUCCUCACAUGAGGAUCACCCAUGUAGAAGGGCAUGAUC [Omei Ex2 A29] (Eterna round: R97, puzzle: Exclusion 2) | 258 | 1080 | – | – |
| CUCGUGCAGCAAAGCUGUACGAGUACAUGAGGAUCACCCAUGUAGGAUAUGGUACGCAAAGCGUGCUAGAAGGACGUGUGUAAG [Mat - Exclusion NG 3 - Mod of JL - D92] (Eterna round: R96, puzzle: Exclusion NG 3) | 118 | 47.7 | 33.4 | – |
| GCUGAUGCAGGAUAUAUAUGAAGCGUUCGAAUAGAAUGCGAACAUGAGGAUCACCCAUGUAGAAGGGCAUUGGC [Omei Ex 2, 1A] (puzzle: Exclusion 2) | – | – | – | apparent KD of MS2 coat protein [2]: 13.9 nM |
| AAAUAGCAUGAGGAUAUUGAACUGUAUACAGUACGAGAAGGCAUGACAUGAGGAUCACCCAUGUUUUGUUGGGA [EX6 #4] (Eterna round: R97, puzzle: Exclusion 6) | 119 | 49 | – | – |
| UUGACGGCAGGAUAUACAUGAGGAUCACCCAUGUAAAUUUUUCGUUUAACUUGAAUGUGUAGAAGGGCCAACUU [Ex3 #73] (Eterna round: R97, puzzle: Exclusion 3) | 18.6 | 16.8 | – | – |
| CCUCGACAUGAGGAUCACCCAUGUCAGGAUAUUGUGUUUUUGGUUUUUUACCUUUAGGCAAGAAGGGAUGUGUG [LRO-Excl1-18] (puzzle: Exclusion 1) | – | – | – | apparent KD of MS2 coat protein [2]: 14.4 nM |
| GACCAGGCAGGAUAUACAUGAGGAUCACCCAUGUGUCUGCGUUGGGCACGUGAACACGGUAGAAGGGCCUUGAC [ChP 13.04.2015 #15] (puzzle: Exclusion 3) | – | – | – | apparent KD of MS2 coat protein [2]: 12.8 nM |
| AAAAAAUAAAAAACAAGCUACAUGAGGAUCACCCAUGUUACAAAAAUAAAAUAAAAAUAAAAUAAAAGUAAAAUGGG [Sensor V2: 75 Random] (Eterna round: R96, puzzle: Sensor v2, turn-off variant) | 145 | 98.8 | 78.2 | – |
| ACAUGAGGAUCACCCAUGUGAAAAGAAUGGCUGACACAGAGAUAGGAUAUAUGUGCAUAUCUAACAUAGAAGGGUCAUGACUGG [Deportation 79 - Jieux - Exclusion NG 3] (Eterna round: R96, puzzle: Exclusion NG 3) | 28.6 | 33.1 | 21.6 | – |
| UAUAUAUAGUAAGGAUAUGUAUUAAUUCUAUAAACAGAAGGUACUGACAUGAGGAUCACCCAUGUUUUAGUGUGGGCAUGUAGA [JMF's solution 82] (Eterna round: R96, puzzle: Exclusion NG 1) | – | – | 41.3 | – |
